Experimental data published in the nanobody polyreactivity screen of Harvey et al. (2022).

Assay: yeast display, Sf9 membrane polyspecificity reagent, FACS + sequencing; frameworks hold sequencing errors
Procedure, shortened: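 Nanobodies from a synthetic yeast display library (Saccharomyces cerevisiae BJ5465), induced 36–48 hours with galactose, were stained 1 hour at 4 °C with 10% biotinylated, detergent-solubilized Sf9 membrane reagent, enriched on streptavidin microbeads, then FACS-sorted. Anti-HA (expression) and streptavidin (reagent binding) fluorescence set low and high (top ~1%) gates. Polyreactivity labels come from the gate of origin. Genes were colony-PCR amplified, MiSeq 2 × 250 sequenced and filtered by CDR length.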

Row | Sequence | polyreactivity (PSR sort gate)
1 | QVHLVESGGGLVQAGGSLRLSCAASGSIFKYNAMGWYRQSPGKERELVAAISSGGSTNYADSVKGRFTISRDNAKNTVYLQMNSLKPEDTAVYYCAKDRRRWYYTRDYWGQGTQVTVSS | low polyreactivity
2 | QVHLVESGGGLVQAGGSLRLSCAASGSIFLAYAMGWYRQAPGKERELVAAISGGGSTYADSVKGRFTISRDNAKNTVYLQMNSLKPEDTAVYYCNADGRGDRFWSNFRFDYWGQGTQVTVSS | low polyreactivity
3 | QVHLVESGGGLVQAGGSLRLSCAASGSIFPYNVMGWYTQAPGTERELVAAISTRGGRTYYADSVKGRFTISRDNANNTVYLELNSLKPEDTAVYDCATAGGPYSDYGYYWGQGTQVTVSS | high polyreactivity
4 | QVHLVESGGGLVQAGGSLRLSCAASGSIFRGYAMGWSRQAPGKERELVAAITSGGSTNYADSVNGRFTISRDNANNTVYLQMNSLKPEDTAVYYCNTVRWGRRTTFYYWGQGTQVTVSS | low polyreactivity
5 | QVHLVESGGGLVQAGGSLRLSCAASGSIFRNNAMGWYRQAPGKARELVAVISRSGGSTYYADSVKGRFTISRDNAKNTVYLDMNSLKPEDTAVYYCDVGYWGRLGFRGYGYWGQGTQVTVSS | low polyreactivity
6 | QVHLVESGGGLVQAGGSLRLSCAASGSIFSSYAMGWYRQATGKERELVASISSGGSTNYADSVKGRFTISRDNAKNTVYLQMNSLKPEDTAVYYCNVDLYNWRGDSTGYDYWGQGTQVTVSS | low polyreactivity
7 | QVHLVESGGGLVQAGGSLRLSCAASGSIFVQYAMGWYRQAPGKERELVAAITRDGDRTYYADSVKGRFTISRDNAKNTVYLQMNSLKPEDTAVYYCAARHSSIRSPQYDYWGQGTQVTVSS | high polyreactivity
8 | QVHLVESGGGLVQAGGSLRLSCAASGSIFYYYGMGWYRQAPGIERELVAAISSGGRTYYADSVKGRFTISRDNAKNTVYLQMDSLKPEDTAVYYCAKPGSYAVYSGWHDYWGQGTQVTVSS | high polyreactivity
9 | QVHLVESGGGLVQAGGSLRLSCAASGSIKQNAMGWYRQAPGKERELVAAIDWDGSSTYYADSVKGRFTISRDNAKNTVYLQMNSLKPEDTAVYYCNTDYTGPDGTDEYDYWGQGTQVTVSS | low polyreactivity
10 | QVHLVESGGGLVQAGGSLRLSCAASGSILTDNAMGWYRQAPGKERELVAAITSSGNTNYADSVKGRFTISRDNAKNTVYLQMNSLKPEDTAVYYCAADSYYKHWTDWLPVGEDYWGQGTEVTVSS | low polyreactivity
11 | QVHLVESGGGLVQAGGSLRLSCAASGSILYGNAMGWYRQAPGKERELVAAISYSGGRTYYADSVKGRFTISRDNAKNTVYLQMNSLKPEDTAVYYCAALHSGRVQNFDYWGQGTQVTVSS | high polyreactivity
12 | QVHLVESGGGLVQAGGSLRLSCAASGSIRVEYAMGWNRQAPGKERELVATITDSGNTNYADSVKGRFTISRDNAKNTVYLQMNSLKPEDTAVYYCAADAYPYYWLDQAFGYDYWGQGTQVTVSS | low polyreactivity
13 | QVHLVESGGGLVQAGGSLRLSCAASGSIVFLYAMGWYRQAPGKEWELVAAISGRGTSTDYADSVKGRFTISRDNAKNTVYLQLTSLKPEDTAVYFCAAKYNRPYQGWRVNHWGQGTQVTVSS | high polyreactivity
14 | QVHLVESGGGLVQAGGSLRLSCAASGSIYTRYAMGWYRQAPGKERDLVAAITVSGGSTYYADSVKGRFTISRDNAKNTVYLQMNSLKPEDTAVYYCARRAWSGPGYFKAIRRFDYWGQGTQVTVSS | low polyreactivity
15 | QVHLVESGGGLVQAGGSLRLSCAASGSNCTYYAMGWYRQAPGKERELVAAIDFSGASTSYADSVKGRFTISRDNAKNTVYFQMNSLKPEDTAVYYCAAVLYWYPPYYYWGQGTQVTVSS | low polyreactivity
16 | QVHLVESGGGLVQAGGSLRLSCAASGSNFVGNAMGWYRQAPGKERELVATISNSGGRTYYADSVKGRFTISRDNAKNTVYLQMNSLKPEDTAVYYCAADHPAFGPGYSFDFWGQGTQVTVSS | low polyreactivity
17 | QVHLVESGGGLVQAGGSLRLSCAASGSTFAIYAMVWYRQAPGKERELVAAIRQRAGSTYYADSVKGRFTISRDNAKNTVYLQMNSLKPEDTAVHYCATATRPISRGYWGQGTQVTVSS | low polyreactivity
18 | QVHLVESGGGLVQAGGSLRLSCAASGSTFFIYTMGWYRQAPGKEREFVAAISWTGGRTYYADSVKGRFTISRDNAKNTVYLQMNSLKPEDTAVYYCAARYKYSSYDYWGEGTQVTVSS | high polyreactivity
19 | QVHLVESGGGLVQAGGSLRLSCAASGSTFFYYAMGWYRQAPGKERELVAAISNSGGNTFYADSVKGRFTISRDNAKNTVYLQMNSLKPEDTAVYYCAADEIGHFQWRDGDYWGQGTQVTVSS | low polyreactivity
20 | QVHLVESGGGLVQAGGSLRLSCAASGSTFGRYTMGWYRQAPGKERELVAAITSGGGSTYYADSVKGRFTISRDNAKNTVYLQMNSLKPEDTAVYYCAARSLVQDHAYGYNYWGQGTQVTVSS | low polyreactivity
21 | QVHLVESGGGLVQAGGSLRLSCAASGSTFGSNAMGWYRQAPGKERELVAAIRGIVGSKYYADSVKGRFTISRDNAKNTVYLLMNSLKPEDTAVYYCAADIDFERDRYVYWGQGTQVTVSS | low polyreactivity
22 | QVHLVESGGGLVQAGGSLRLSCAASGSTFKRYAMGWYRPAPGKERELVAAIRRGGITNYADSVKGRFTISRDNAKNTVYLQMNSLKPEDTAVYYCAKDGVTYPYSYEYDYWGQGTQVTVSS | low polyreactivity

Row | Sequence | polyreactivity (PSR sort gate)
23 | QVHLVESGGGLVQAGGSLRLSCAASGSTFLANTMGWYRQAPGKERELVAAITRRGGSTRYADSVKGRFTISRDNAKNTVFLEMNSLKPEDTAVYYCAAPWFRDTRGYSLYDYWGQGTQVTVSS | high polyreactivity
24 | QVHLVESGGGLVQAGGSLRLSCAASGSTFQFNAMGWYRQAPGKERELVATISDGGSTSYADSVKGRFTISRDNAKNTVYLQMNSLKPEDTAVYFCARDRFYDFLRVDYWGQGTQVTVSS | low polyreactivity
25 | QVHLVESGGGLVQAGGSLRLSCAASGSTFRDYDMGWYRQAPGKERELVAAISLSGGLTHYADSVKGRFTISRDNGKNTVYLQMNSLKPEDTAVYYCAARNTGPVQYYYWGQGTQVTVSS | low polyreactivity
26 | QVHLVESGGGLVQAGGSLRLSCAASGSTFSGYAMGWDRQAPGKDREFVATITSTGSTNYADSVKGRFTSSRDNAKNTVYLQMNSLNPEENAVYYCHSRYWFVERYFLHYASVRYDYWGQGTKVTVSS | low polyreactivity
27 | QVHLVESGGGLVQAGGSLRLSCAASGSTFTSYAMGWYRQAPGKERELVATISKISGSTYYADSVKGRFTISRDNAKNTVYLQMNSLKPEDTAVYYCAAKQGWVQSSILWYRAYGTLNVRRERMDYWGQGTQVTVSS | high polyreactivity
28 | QVHLVESGGGLVQAGGSLRLSCAASGSTFYANAMGWYRQAPGKDRELVAVIRWSGGSTYYADSVKGRFTISRDNAKNTDYFQINSLKPEDTAVYYCNADFYRVAYLRRYSHFDYWGQGTQVTVSS | high polyreactivity
29 | QVHLVESGGGLVQAGGSLRLSCAASGSTFYIYAKGWYRQAPGKERELVAAIDWTGSTYYADSVKGRFTISRDNAKNTVYLQMNSLKPEDPAVYDCAAYYDLEDDSYRLNSWGQGTQVTVSS | high polyreactivity
30 | QVHLVESGGGLVQAGGSLRLSCAASGSTFYPYSMGWYRQAPGKERELVAAISSGGSTSYADSVKGRFTISRDNAKNTVYLQMNSLKPDDTAVYYCAALYRIFSYDYWGQGTQVTVSS | low polyreactivity
31 | QVHLVESGGGLVQAGGSLRLSCAASGSTIRYYAMGWYRQAPGKERELVAAITKSGGSTYYADSVKGRFTISRDNAKNTVYLQMNSLKPEDTAVYYCAAFRRWYYPALSEHDYWGQGTQGTVSS | low polyreactivity
32 | QVHLVESGGGLVQAGGSLRLSCAASGSTIVRYGMGWYRQAPGKERELVAAITSTGDSTYYADSVKGRFTISRDNAKNTVYLQMNSLKPEDTAVYYCATQSSVLSWWYDYWGQGTEVTVSS | low polyreactivity
33 | QVHLVESGGGLVQAGGSLRLSCAASGSTSAYYVMGWYRQAPGKERELVAAIDFSGDSTYYADSVKGRFTISRDNAKNTVYLQMNSLKPEDTAVYYCAAELFYYSSLVTYEYWGQGTQVTVSS | high polyreactivity
34 | QVHLVESGGGLVQAGGSLRLSCAASGTIFGEYAMGWYRQAPGKERELVARISVSGTGTYYADSVKGRFTISRVNAKNTVYLQMNSLKPEDTAVYYSATRLYTIRWGGVSYDYDYWGQGTQVTVSS | high polyreactivity
35 | QVHLVESGGGLVQAGGSLRLSCAASGTTFGDYAMGWYRQAPGKERELVAAISLSAGSTYYADSVKGRFTISRDNAKNTVYLQMNSLKPEDTAVYYCAAEYQYHWAYIYYYWGQGTQVTLSS | high polyreactivity
36 | QVHLVESGGGLVQAGGSLRLSCAASGVIFSSYAMGWYRQAPGKERELVAAISTGDGSTTYADSVKGRFTISRDNAKNTVYLQMNSLIPEDTAVYYCNVKYRSSYRTDFDYWGQGTQVTVSS | low polyreactivity
37 | QVHLVESGGGLVQAGGSLRLSCAASGYIFRRYAMGWYRQAPGKERELVAAISFSGGSTYYADSVKGRFTISRDNAKNSVYIQMNSLKPDDTAVYYCAGLSLLRYDYWGQGTQVTVSS | high polyreactivity
38 | QVHLVESGGGLVQAGGSLRLSCAASGYTFGYYTMGWYRQAPGKERELFASIDSGGGTNYADSVKGRFTISRDNAKNTVFLQMNSLKPEETAVYYCAVDSYQTGVYFYYVYWDFDLGYWGQVTQVTVSS | low polyreactivity
39 | QVHLVESGGGLVQAGGSLRLSCAASGYTFRYYAMGWYRQAPGKERELVAAINWSGGSTYYADSVKGRFTISRDNAKNTVYLQMNSLTPEDTAVYYCAADPDGDLDIDYDYWGQGTQVTVSS | low polyreactivity
40 | QVHLVESGGGLVQAGGSLRLSCAASRGIFHYYAMGWYRQAPGNERELVAAISWNTGSTYYADSVKGRFTISRDNAKNTVYLQMNSLKPEDTAVYYCAASYRSPWMRYDYWGQGTQVTVSS | high polyreactivity
41 | QVHLVESGGGLVQAGGSLRLSCAATGRIFVPYVMGWYRQAPGKERELVASISDSDTSTYYADSVKGRFTISRDNAKNTVYLQMNSLKPEDNAVYYCNVDYWGQGTQVTVSS | low polyreactivity
42 | QVHLVESGGGLVQAGGSLRLSCAATGSIFDQNAMGWYRQAHGKVRELVAAITRGGSTKYADSVKGRFTISRDNAKNTVYLQMNSLKPEDTAVYYCARTARRRYQPYEYWGQGTQVTVSS | low polyreactivity
43 | QVHLVESGGGLVQAGGSLRLSCAATGSTFPNAMGWYRQAPGKERELVAAITYGGGSTYYADSVKGRFTISRDNAKNTVYLQMNSLIPEDTAVYYCNAPSRLSTIFYSGYDYWGQGTQVTVSS | low polyreactivity
